Non-standard residues stand in square brackets, D forms with d. No end group written: not given here. pS = N[C@@H](COP(=O)(O)O)C(=O)O
Key:
β-TrCP = target: T1, β-TrCP (Homo sapiens, UniProt Q9Y297); assay: Peptide competition of β-TrCP binding to pIκBα; conditions: FIG. 11B
T1 construct: made in house; host or cells: transfected 293 (293T) cells, immunoprecipitated through FLAG
Experimental: (§1) FIGS. 11A-11C are Western blots illustrating binding and ubiquitination specificity of E3 ubiquitin ligase family members. Within these figures, mβ-TrCP indicates mouse β-TrCP, hβ-TrCP indicates human β-TrCP, Δβ-TrCP indicates human β-TrCP with a deletion of the F box region and Slimb indicates the Drosophila Slimb protein. FIG. 11A illustrates selective binding to pIκBα. Proteins were immunoprecipitated through a FLAG epitope from transfected 293T cells, incubated with immunopurified IκBα/NF-κB complex, which had been treated (−/+IKK) as indicated and the bound material was analyzed by Western blotting with the indicated antibodies. […] FIG. 11C illustrates in vitro ubiquitination of pIκBα by the E3 family member proteins. Immunopurified FLAG-tagged proteins were incubated with ^35 S-labeled IκBα/NF-κB complexes, treated (−/+IKK) as indicated and subject to ubiquitination in the presence of ATPγS, ubiquitin. E1 and UBC5C. The IκBα substrate (composed of full-length and two degradation products), pIκBα-polyubiquitin conjugates and molecular size markers are indicated on the left.
The ability of these proteins to bind pIκBα specifically and assist in its ubiquitination was examined in a cell-free system. […] The bound material was analyzed by Western blotting with anti-IκBα and anti-FLAG antibodies. […]

[1] = tested on: ubiquitin-ligase activity associated with the pIκB-complex; assay: Recruitment of ubiquitin-ligase activity from HeLa lysate to IKK2-EE phosphorylated IκBα/NF-κB complex; assay type: biochemical, human; conditions: peptide included in incubation with HeLa lysate, FIG. 6
Experimental: Following immunoprecipitation of ^35S-labeled IκBα/NF-κB complexes from a non-stimulated HeLa lysate previously incubated with recombinant ^35S-labeled IκBα, the complexes were phosphorylated by the recombinant IKK2-EE, eluted with the p65 cognate peptide and subjected to in vitro ubiquitination. After incubation with IKK2-EE, nearly all of the ^35S-IκB was phosphorylated. […] Therefore, IκB phosphorylation by IKK was not sufficient to promote its ubiquitination in the presence of E1 and E2. Conceivably, pIκBα ubiquitination requires an additional component of the HeLa lysate that was not co-immunopurified from non-stimulated cells.
To confirm this hypothesis, immuno-bound IκBα/NF-κB complexes were incubated with a non-stimulated HeLa lysate, either directly or following IKK2-EE phosphorylation, washed extensively with high-salt buffer and eluted with the p65 peptide. Indeed, incubation of the phosphorylated IκB complexes (FIG. 6 lane 3), but not of the non-phosphorylated ones (lane 1), with the HeLa lysate, provided the pIκB-ligase component(s) necessary for pIκBα conjugation. No signal was obtained when E1 or E2 were omitted from the reaction, confirming that the signal at the top of the gel represents poly-ubiquitin IκBα-conjugates (lanes 5, 6). […]

[2] = tested on: pIκBα-associated proteins (p54, p58, p61, 64 kD); assay: Association of 35S-labeled HeLa lysate proteins with immuno-bound pIκBα/NF-κB complex (SDS-PAGE, autoradiography); assay type: binding, human; conditions: peptide added to radiolabeled HeLa lysate, FIG. 7B
Experimental: HeLa extract (250 mg) was incubated with 250 μl anti-p65 immunobeads. Following four washes in buffer A (1M KCl, 0.5% NP40, 50 mM Tris buffer pH 7.6, 1 mM DTT) and one wash in buffer B (50 mM Tris buffer, pH 7.6, 1 mM DTT), half the beads were subject to in vitro phosphorylation with IKK and half underwent mock-phosphorylation. The beads were washed twice in buffer A and once in buffer B, agitated with 100 mg HeLa extract in the presence of 1 μm okadaic acid for 30 min at 25° C., washed four times with buffer A, once in buffer A and eluted with 1 mg/ml p65 peptide. A similar experiment was performed with 10 mg ^35 S-metabolically-labeled HeLa cell lysate (100 μCi/ml Met/Cys for 8 hours) and 25 μl p65-immunobeads. Eluate-fractions derived from both the hot and cold lysates were mixed, boiled in SDS-sample buffer and analyzed by 7.5% SDS-PAGE and autoradiography. Gel slices corresponding to the autoradiogram signals were excised and their protein-bands sequenced by mass-spectrometry, as described below.
To circumvent the possible masking of the putative pIκB-ubiquitin ligase, we replaced the ligase source with ^35S-biosynthetically-labeled HeLa lysate and traced the IκBα-associated proteins by SDS-PAGE analysis and autoradiography (FIG. 7B). In parallel, the various fractions were tested for their ubiquitin-ligase capacity. […]

[3] = tested on: pIκBα-associated ubiquitin-ligase; assay: In vitro ubiquitination of pIκBα/NF-κB complex immunopurified from TNFα-stimulated HeLa cells with E1 and UBC5C; assay type: biochemical, human; conditions: Bestatin 40 μg/ml, FIG. 5
Experimental: To further study the recruitment of components of the ubiquitin machinery by phosphorylated IκBα-complexes, pIκBα/NF-κB complexes were purified from proteasome inhibited, TNF-α stimulated HeLa cells, and their ubiquitination potential was evaluated. HeLa cells were pre-incubated with the proteasome inhibitor ALLN (150 μM) for 1 hour and stimulated for 10 minutes with TNFα. […]
The immunopurified fraction was supplemented with various components of the ubiquitin system and subjected to in vitro ubiquitination. […] The reaction mix was then boiled in SDS-buffer and the sample analyzed by SDS-PAGE (8.5%) and phospho-imaging.
To determine the source of the IκBα-conjugates, the ubiquitination reactions were performed in the presence of a pIκBα peptide (pp12; CDRHDS[PO3]GLDS[PO3]; SEQ ID NO:22) (lane 7) or a serine/glutamic-acid substituted IκBα peptide (p12S/E) (lane 8). Both peptides were synthetic, purchased from Alfa-Diagnostic, Inc., and then HPLC-purified, analyzed by mass spectrometry, verified for the predicted structure and proven to be over 85% pure. […]

[4] = tested on: NF-κB activation in Jurkat cells; assay: κB-dependent luciferase assay in P/I-stimulated Jurkat cells; assay type: cell-based; conditions: transient over-expression in stimulated Jurkat cells
Description: FIGS. 12A and 12B illustrate inhibition of IκBα degradation and NF-κB activation by overexpression of Δβ-TrCP, a dominant negative molecule. FIG. 12A is a graph depicting the results of a κB-dependent luciferase assay in P/I-stimulated Jurkat cells transfected with κB-Luc reporter plasmid and the indicated expression vectors (i.e., from left to right, vector alone, vector encoding human β-TrCP, vector encoding human β-TrCP with a deletion of the F box region and vector encoding Drosophila Slimb protein). NF-κB activity is shown as relative (fold) luciferase activity, the non-stimulated empty FLAG vector being the reference (single-fold). FIG. 12B depicts the results of western blot analysis of IκBα of phorbol-ester and Ca^++ ionophore [P/I]-stimulated and non-stimulated Jurkat cells transfected with an empty FLAG vector or Δβ-TrCP. The post-stimulation interval (min) is indicated.

pIκBα = target: T2, pIκBα (Homo sapiens, UniProt P25963); assay: Binding of immobilized FLAG-tagged E3 family members to IκBα/NF-κB complex (Western blot); conditions: FIG. 11A
T2 construct: The IκBα/NF-κB complex was immunopurified from HeLa cells; endogenous in cells; host or cells: HeLa cells
T2 sequence (P25963 whole entry): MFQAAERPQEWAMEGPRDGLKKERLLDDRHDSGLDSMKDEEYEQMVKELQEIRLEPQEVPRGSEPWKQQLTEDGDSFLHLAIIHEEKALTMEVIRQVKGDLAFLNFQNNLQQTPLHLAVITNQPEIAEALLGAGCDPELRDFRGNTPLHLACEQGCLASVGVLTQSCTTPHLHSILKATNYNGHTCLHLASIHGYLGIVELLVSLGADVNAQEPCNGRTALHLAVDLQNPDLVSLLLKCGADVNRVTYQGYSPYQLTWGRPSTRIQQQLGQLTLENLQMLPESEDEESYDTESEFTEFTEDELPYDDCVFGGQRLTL
T2 sequence (Q04206 whole entry partner): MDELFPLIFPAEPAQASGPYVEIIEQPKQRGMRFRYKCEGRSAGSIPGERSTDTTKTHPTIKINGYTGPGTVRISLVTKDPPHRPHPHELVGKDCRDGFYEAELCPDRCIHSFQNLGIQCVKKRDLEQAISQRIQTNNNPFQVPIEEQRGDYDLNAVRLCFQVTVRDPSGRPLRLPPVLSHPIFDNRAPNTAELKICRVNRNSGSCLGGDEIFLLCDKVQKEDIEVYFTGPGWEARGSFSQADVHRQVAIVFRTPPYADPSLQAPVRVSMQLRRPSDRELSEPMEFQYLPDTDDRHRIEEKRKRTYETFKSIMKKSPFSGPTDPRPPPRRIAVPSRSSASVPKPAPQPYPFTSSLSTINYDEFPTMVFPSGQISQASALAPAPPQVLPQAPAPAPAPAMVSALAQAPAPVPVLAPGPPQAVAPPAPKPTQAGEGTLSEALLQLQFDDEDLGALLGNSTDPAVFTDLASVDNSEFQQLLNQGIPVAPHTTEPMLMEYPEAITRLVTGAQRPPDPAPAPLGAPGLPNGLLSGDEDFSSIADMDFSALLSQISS
Experimental: as §1
The ability of these proteins to bind pIκBα specifically and assist in its ubiquitination was examined in a cell-free system. The IκBα/NF-κB complex was immunopurified from HeLa cells and the immune complex was either phosphorylated with IKK2-EE or mock-phosphorylated as described above. It was then incubated with the following immobilized FLAG-tagged E3 family members immunoprecipitated from transfected 293 cells: mouse β-TrCP (mβ-TrCP), human β-TrCP (hβ-TrCP), human β-TrCP with a deletion of the F box region residues 122-168 (Δβ-TrCP) and the Drosophila Slimb protein. The bound material was analyzed by Western blotting with anti-IκBα and anti-FLAG antibodies. […] Furthermore, β-TrCP binding was abrogated by a peptide representing the pIκBα recognition motif (pp10; DRHDS(PO3)GLDS(PO3)M (SEQ ID NO:29); see FIG. 11B, lane 3), but not by the control peptide (lane 4), specifying the site of pIκBα recognition of the conserved DS(PO3)GLDS(PO3) (SEQ ID NO:30) sequence.

T1 sequence (P63208 whole entry partner, one chain of several): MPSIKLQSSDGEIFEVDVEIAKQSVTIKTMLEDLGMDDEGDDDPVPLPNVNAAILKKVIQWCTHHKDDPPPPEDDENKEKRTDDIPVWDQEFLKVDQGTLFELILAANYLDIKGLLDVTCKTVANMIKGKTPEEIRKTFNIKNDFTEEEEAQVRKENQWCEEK

pp10: peptide representing the pIκBα recognition motif, DRHDS(PO3)GLDS(PO3)M, SEQ ID NO:29 (DRHD[pS]GLD[pS]M; listed as Homo sapiens)
effect of peptide on β-TrCP-pIκBα binding (β-TrCP): abrogated

pp12: pIκBα peptide CDRHDS[PO3]GLDS[PO3]; SEQ ID NO:22 (CDRHD[pS]GLD[pS]; listed as Homo sapiens)
ubiquitin-ligase activity associated with the pIκB-complex [1]: abrogated
association of distinctive 35S-protein bands with pIκBα [2]: three bands were eliminated
formation of polyubiquitin-IκBα conjugates [3]: abolished

B1: hβ-TrCP: FLAG-tagged human β-TrCP, E3 family member (protein)
chain: MDPAEAVLQEKALKFMNSSEREDCNNGEPPRKIIPEKNSLRQTYNSCARLCLNQETVCLASTAMKTENCVAKTKLANGTSSMIVPKQRKLSASYEKEKELCVKYFEQWSESDQVEFVEHLISQMCHYQHGHINSYLKPMLQRDFITALPARGLDHIAENILSYLDAKSLCAAELVCKEWYRVTSDGMLWKKLIERMVRTDSLWRGLAERRGWGQYLFKNKPPDGNAPPNSFYRALYPKIIQDIETIESNWRCGRHSLQRIHCRSETSKGVYCLQYDDQKIVSGLRDNTIKIWDKNTLECKRILTGHTGSVLCLQYDERVIITGSSDSTVRVWDVNTGEMLNTLIHHCEAVLHLRFNNGMMVTCSKDRSIAVWDMASPTDITLRRVLVGHRAAVNVVDFDDKYIVSASGDRTIKVWNTSTCEFVRTLNGHKRGIACLQYRDRLVVSGSSDNTIRLWDIECGACLRVLEGHEELVRCIRFDNKRIVSGAYDGKIKVWDLVAALDPRAPAGTLCLRTLVEHSGRVFRLQFDEFQIVSSSHDDTILIWDFLNDPAAQAEPPRSPSRTYTYISR
modifications: left off: small tags and cut ends
notes: FLAG-tagged human β-TrCP, E3 family member
activation of NF-κB [4]: not inhibitory
relative binding of IκBα / pIκBα (pIκBα; comparison between family members): far better than the highly homologous Drosophila protein
binding to IKK-phosphorylated versus mock-phosphorylated IκBα (pIκBα; FLAG-tagged protein from transfected 293 cells): exclusively bound IKK-phosphorylated, but not mock-phosphorylated, IκBα

From US8263326B2, “Compounds and methods for modulating activation of NF-κB” (Signal Pharmaceuticals, LLC, priority 1998, dated 2012)
